According to patent US20050282739A1 (PALATIN TECHNOLOGIES, published 2005):
Where two headings read alike, the source gives them in different places. Blank lines part the entries; values can stand above or below the binder they belong to. Square brackets hold non-standard residues; d marks the D form. Ends that are not written are not given here. Nle = CCCC[C@H](N)C(=O)O

Legend:
[1] = biological target: T1, melanocortin-1 receptor (MC1-R) of B-16 mouse melanoma cells (mouse, UniProt Q01727 1-315); assay: 125I-NDP-α-MSH competition, B-16 membranes
T1 construct: whole, on cells; membranes prepared from the cells were used; also called Melanocortin Receptor 1
T1 sequence (Q01727 whole entry): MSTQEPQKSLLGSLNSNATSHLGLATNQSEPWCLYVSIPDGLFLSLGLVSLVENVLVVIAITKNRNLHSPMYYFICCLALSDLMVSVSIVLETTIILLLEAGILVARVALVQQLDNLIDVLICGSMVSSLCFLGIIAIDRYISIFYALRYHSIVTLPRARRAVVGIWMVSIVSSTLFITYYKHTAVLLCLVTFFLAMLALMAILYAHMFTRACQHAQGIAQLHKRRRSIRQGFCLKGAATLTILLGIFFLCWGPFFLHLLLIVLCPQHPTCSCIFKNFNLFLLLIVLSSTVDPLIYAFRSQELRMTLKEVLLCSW
Experimental: (§1) The competitive inhibition binding assay was conducted using membranes prepared from hMC3-R, hMC4-R, hMC5-R, and B-16 mouse melanoma cells (containing MC1-R) using 0.4 nM ¹²⁵I-NDP-alpha-MSH (New England Nuclear, Boston, Mass., USA) in 50 mM HEPES buffer containing 1 mM MgCl₂, 2 mM CaCl₂, and 5 mM KCl, at pH 7.2. […] Incubation was for 90 minutes at room temperature, after which the assay mixture was filtered and the membranes washed three times with ice cold buffer. The filter was dried and counted in a gamma counter for remaining radioactivity bound to the membranes. 100% specific binding was defined as the difference in radioactivity (cpm) bound to cell membranes in the absence and presence of 1 μM α-MSH. […] Each assay was conducted in triplicate and the actual mean valves are described.
(§2) The methods and assays set forth in Example 1 were followed.

[2] = biological target: T2, human melanocortin-3 receptor (hMC3-R) (human, UniProt P41968 1-323); assay: 125I-NDP-α-MSH competition, hMC3-R membranes
T2 construct: whole, on cells; membranes prepared from hMC3-R cells were used; also called Melanocortin Receptor 3
T2 sequence (P41968 whole entry): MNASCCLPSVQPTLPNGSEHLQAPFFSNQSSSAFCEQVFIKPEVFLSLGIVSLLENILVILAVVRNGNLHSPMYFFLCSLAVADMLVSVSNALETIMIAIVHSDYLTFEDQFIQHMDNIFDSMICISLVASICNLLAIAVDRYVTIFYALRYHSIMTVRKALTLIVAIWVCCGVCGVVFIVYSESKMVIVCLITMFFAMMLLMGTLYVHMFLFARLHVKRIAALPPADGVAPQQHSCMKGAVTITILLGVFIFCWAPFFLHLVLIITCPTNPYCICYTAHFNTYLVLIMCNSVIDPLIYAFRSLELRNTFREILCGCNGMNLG
Experimental: as §1, §2

[3] = biological target: T3, human melanocortin-4 receptor (hMC4-R) (human, UniProt P32245 1-332); assay: 125I-NDP-α-MSH competition, hMC4-R membranes
T3 construct: whole, on cells; membranes prepared from hMC4-R cells were used; also called Melanocortin Receptor 4
T3 sequence (P32245 whole entry): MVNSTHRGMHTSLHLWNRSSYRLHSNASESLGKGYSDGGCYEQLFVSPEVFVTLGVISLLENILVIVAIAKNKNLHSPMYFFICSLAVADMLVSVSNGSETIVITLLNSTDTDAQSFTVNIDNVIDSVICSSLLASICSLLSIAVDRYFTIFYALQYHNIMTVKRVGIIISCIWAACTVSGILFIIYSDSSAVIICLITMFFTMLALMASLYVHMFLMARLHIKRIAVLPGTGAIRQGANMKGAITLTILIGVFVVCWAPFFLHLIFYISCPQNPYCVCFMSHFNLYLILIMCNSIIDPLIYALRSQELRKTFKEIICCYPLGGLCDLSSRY
Experimental: as §1, §2

[4] = biological target: T4, human melanocortin-5 receptor (hMC5-R) (human, UniProt P33032 1-325); assay: 125I-NDP-α-MSH competition, hMC5-R membranes
T4 construct: whole, on cells; membranes prepared from hMC5-R cells were used; also called Melanocortin Receptor 5
T4 sequence (P33032 whole entry): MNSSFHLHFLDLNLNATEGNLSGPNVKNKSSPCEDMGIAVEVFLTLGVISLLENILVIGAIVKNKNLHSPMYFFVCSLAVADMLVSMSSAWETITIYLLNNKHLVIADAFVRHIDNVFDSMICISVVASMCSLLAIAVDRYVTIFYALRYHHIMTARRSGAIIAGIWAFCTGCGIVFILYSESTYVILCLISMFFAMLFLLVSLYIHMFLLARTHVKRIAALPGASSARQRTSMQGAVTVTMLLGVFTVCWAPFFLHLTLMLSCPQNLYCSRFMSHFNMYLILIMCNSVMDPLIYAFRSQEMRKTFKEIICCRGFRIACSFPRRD
Experimental: as §1, §2

[5] = biological target: T1, melanocortin-1 receptor (MC1-R) of B-16 …; assay: 125I-NDP-α-MSH competition, B-16 membranes; remark: listed apart in the source
Experimental: as §1

[6] = biological target: T2, human melanocortin-3 receptor (hMC3-R); assay: 125I-NDP-α-MSH competition, hMC3-R membranes; remark: listed apart in the source
Experimental: as §1

[7] = biological target: T3, human melanocortin-4 receptor (hMC4-R); assay: 125I-NDP-α-MSH competition, hMC4-R membranes; remark: listed apart in the source
Experimental: as §1

- % Inhibition at 1 µM [1]: 56%
- % Inhibition at 1 µM [2]: 69%
- % Inhibition at 1 µM [3]: 36%
- % Inhibition at 1 µM [4]: 41%
Binder: YVXGHFRWDRFC (not fully specified; Nle 3; C-terminal amide; Re complexed at Cys 12) [metallopeptide 4-1]

- % Inhibition at 1 µM [1]: 97%
- % Inhibition at 1 µM [2]: 21%
- % Inhibition at 1 µM [3]: 47%
- % Inhibition at 1 µM [4]: 17%
Binder: Ac-SY[dC]S[Nle]EHFRWGKPV-NH2 (also: oxorhenium(V) N3S1 chelate at D-Cys3) [metallopeptide 2-12]

- % Inhibition at 1 µM [1]: 69%
- % Inhibition at 1 µM [2]: 0%
- % Inhibition at 1 µM [3]: 25%
- % Inhibition at 1 µM [4]: 29%
Binder: Ac-SYS[Nle]EH[dC]FRWGKPV-NH2 (also: oxorhenium(V) N3S1 chelate at D-Cys 7) [metallopeptide 2-8]

- % Inhibition at 1 µM [1]: 43%
- % Inhibition at 1 µM [2]: 0%
- % Inhibition at 1 µM [3]: 4%
- % Inhibition at 1 µM [4]: 0%
Binder: Ac-SYS[Nle]EHFRW[dC]GKPV-NH2 (also: oxorhenium(V) N3S1 chelate at D-Cys10) [metallopeptide 2-5]

- % Inhibition at 1 µM [2]: 17%
- % Inhibition at 1 µM [4]: 15%
B1: metallopeptide 4-7 (peptide)
peptide: YV[Nle]GHCFRWDRF-NH2
modifications: also: oxorhenium(V) N3S1 chelate: C6 SG + backbone N of G4, H5, C6, bridge at 6 via Re(V)=O, other end not in the chain

- % Inhibition at 1 µM [1]: 83%
- % Inhibition at 1 µM [2]: 85%
- % Inhibition at 1 µM [3]: 58%
- % Inhibition at 1 µM [4]: 43%
Binder: YVXGHFRWDRF (Nle 3; C-terminal amide, not complexed to Re) [[Nle3]-γ-MSH parent polypeptide Tyr-Val-Nle-Gly-His-Phe-Arg-Trp-Asp-Arg-Phe-NH2]

- % Inhibition at 1 µM [1]: 97%
- % Inhibition at 1 µM [2]: 72%
- % Inhibition at 1 µM [3]: 46%
- % Inhibition at 1 µM [4]: 53%
B2: metallopeptide 2-1 (peptide)
peptide: SYSXEHFRWGKGVC
modifications: N-terminal acetyl; Nle 4 (X in letters); D-Cys 14; C-terminal amide; Re complexed at D-Cys 14

- % Inhibition at 1 µM [1]: 95%
- % Inhibition at 1 µM [3]: 37%
- % Inhibition at 1 µM [4]: 0%
Binder: Ac-SYS[dC][Nle]EHFRWGKPV-NH2 (also: oxorhenium(V) N3S1 chelate at D-Cys4) [metallopeptide 2-11]

- % Inhibition at 1 µM [1]: 91%
- % Inhibition at 1 µM [2]: 41%
- % Inhibition at 1 µM [3]: 25%
- % Inhibition at 1 µM [4]: 38%
Binder: Ac-SYS[Nle]EHFRWGK[dC]PV-NH2 (also: oxorhenium(V) N3S1 chelate at D-Cys12) [metallopeptide 2-3]

- % Inhibition at 1 µM [1]: 46%
- % Inhibition at 1 µM [2]: 2%
- % Inhibition at 1 µM [3]: 6%
- % Inhibition at 1 µM [4]: 6%
Binder: Ac-SYS[Nle]EHFR[dC]WGKPV-NH2 (also: oxorhenium(V) N3S1 chelate at D-Cys9) [metallopeptide 2-6]

- % Inhibition at 1 µM [1]: 93%
- % Inhibition at 1 µM [2]: 26%
- % Inhibition at 1 µM [3]: 28%
- % Inhibition at 1 µM [4]: 32%
Binder: Ac-SYS[Nle]EHFRWGKG[dC]V-NH2 (also: oxorhenium(V) N3S1 chelate at D-Cys13) [metallopeptide 2-2]

- % Inhibition at 1 µM [1]: 65%
- % Inhibition at 1 µM [2]: 0%
- % Inhibition at 1 µM [3]: 18%
- % Inhibition at 1 µM [4]: 0%
Binder: Ac-SYS[Nle][dC]EHFRWGKPV-NH2 (also: oxorhenium(V) N3S1 chelate at D-Cys5) [metallopeptide 2-10]

- % Inhibition at 1 µM [1]: 52%
- % Inhibition at 1 µM [2]: 20%
- % Inhibition at 1 µM [3]: 39%
- % Inhibition at 1 µM [4]: 47%
B3: metallopeptide 4-4 (peptide)
peptide: YV[Nle]GHFRWCDRF-NH2
modifications: also: oxorhenium(V) N3S1 chelate: C9 SG + backbone N of R7, W8, C9, bridge at 9 via Re(V)=O, other end not in the chain

- % Inhibition at 1 µM [5]: 42%
- % Inhibition at 1 µM [6]: 0%
- % Inhibition at 1 µM [7]: 0%
Binder: Ac-SYS[Nle]EHCFRWGKPV-NH2 (also: oxorhenium(V) N3S1 chelate at Cys7) [metallopeptide 1-8]

- % Inhibition at 1 µM [1]: 54%
- % Inhibition at 1 µM [2]: 0%
- % Inhibition at 1 µM [3]: 6%
- % Inhibition at 1 µM [4]: 0%
Binder: Ac-SYS[Nle]EHF[dC]RWGKPV-NH2 (also: oxorhenium(V) N3S1 chelate at D-Cys8) [metallopeptide 2-7]

- % Inhibition at 1 µM [5]: 72%
- % Inhibition at 1 µM [6]: 0%
- % Inhibition at 1 µM [7]: 0%
Binder: Ac-SYS[Nle]EHFRWGCKPV-NH2 (also: oxorhenium(V) N3S1 chelate at Cys11) [metallopeptide 1-4]

- % Inhibition at 1 µM [1]: 91%
- % Inhibition at 1 µM [2]: 27%
- % Inhibition at 1 µM [3]: 40%
- % Inhibition at 1 µM [4]: 21%
Binder: Ac-SYS[Nle]EHFRWG[dC]KPV-NH2 (also: oxorhenium(V) N3S1 chelate at D-Cys11) [metallopeptide 2-4]

- % Inhibition at 1 µM [4]: 24%
B4: metallopeptide 4-6 (peptide)
peptide: YV[Nle]GHFCRWDRF-NH2
modifications: also: oxorhenium(V) N3S1 chelate: C7 SG + backbone N of H5, F6, C7, bridge at 7 via Re(V)=O, other end not in the chain

- % Inhibition at 1 µM [5]: 99%
- % Inhibition at 1 µM [1]: 99%
B5: α-MSH parent polypeptide Ac-Ser-Tyr-Ser-Met-Glu-His-Phe-Arg-Trp-Gly-Lys-Pro-Val-NH2 (peptide)
peptide: Ac-SYSMEHFRWGKPV-NH2
notes: not complexed to Re; also called α-MSH analog

- % Inhibition at 1 µM [1]: 89%
- % Inhibition at 1 µM [2]: 87%
- % Inhibition at 1 µM [3]: 74%
- % Inhibition at 1 µM [4]: 68%
B6: metallopeptide 4-5 (peptide)
peptide: YV[Nle]GHFRCWDRF-NH2
modifications: also: oxorhenium(V) N3S1 chelate: C8 SG + backbone N of F6, R7, C8, bridge at 8 via Re(V)=O, other end not in the chain

- % Inhibition at 1 µM [1]: 28%
- % Inhibition at 1 µM [2]: 10%
- % Inhibition at 1 µM [4]: 17%
B7: metallopeptide 4-10 (peptide)
peptide: YVC[Nle]GHFRWDRF-NH2
modifications: bridge (positions not given here); not fully specified (bridges); printed as Tyr-Val-Cys-Nle-Gly-His-Phe-Arg-Trp-Asp-Arg-Phe-NH2.; also: oxorhenium(V) N3S1 complex

- % Inhibition at 1 µM [2]: 19%
- % Inhibition at 1 µM [4]: 43%
B8: metallopeptide 4-9 (peptide)
peptide: YV[Nle]CGHFRWDRF-NH2
modifications: also: oxorhenium(V) N3S1 chelate: C4 SG + backbone N of V2, X3, C4, bridge at 4 via Re(V)=O, other end not in the chain

- % Inhibition at 1 µM [1]: 92%
- % Inhibition at 1 µM [2]: 13%
- % Inhibition at 1 µM [3]: 35%
- % Inhibition at 1 µM [4]: 2%
Binder: Ac-SYS[Nle]E[dC]HFRWGKPV-NH2 (also: oxorhenium(V) N3S1 chelate at D-Cys 6) [metallopeptide 2-9]

- % Inhibition at 1 µM [1]: 13%
- % Inhibition at 1 µM [2]: 33%
- % Inhibition at 1 µM [4]: 45%
B9: metallopeptide 4-8 (peptide)
peptide: YV[Nle]GCHFRWDRF-NH2
modifications: also: oxorhenium(V) N3S1 chelate: C5 SG + backbone N of X3, G4, C5, bridge at 5 via Re(V)=O, other end not in the chain

- % Inhibition at 1 µM [1]: 75%
- % Inhibition at 1 µM [2]: 49%
- % Inhibition at 1 µM [3]: 23%
- % Inhibition at 1 µM [4]: 51%
B10: metallopeptide 4-2 (peptide)
peptide: YV[Nle]GHFRWDRCF-NH2
modifications: also: oxorhenium(V) N3S1 chelate: C11 SG + backbone N of D9, R10, C11, bridge at 11 via Re(V)=O, other end not in the chain

- % Inhibition at 1 µM [1]: 44%
- % Inhibition at 1 µM [2]: 18%
- % Inhibition at 1 µM [3]: 23%
- % Inhibition at 1 µM [4]: 65%
B11: metallopeptide 4-3 (peptide)
peptide: YV[Nle]GHFRWDCRF-NH2
modifications: also: oxorhenium(V) N3S1 chelate: C10 SG + backbone N of W8, D9, C10, bridge at 10 via Re(V)=O, other end not in the chain
